1 protein from article PMC6079076, “Structure of the mouse TRPC4 ion channel” (Nature Communications, 2018) can be followed below.

This data set concerns the molecule itself. Kind of data set: cryo-EM structure; single-particle cryo-EM of purified TRPC4 in digitonin, 30 mM HEPES, 150 mM NaCl, 1 mM DTT, pH 7.5; apo state; C4 symmetry imposed; 3.3 Å.

B1: mouse TRPC4 (residues a.a. 1–758, excluding a.a. 759–974) (domain or fragment, UniProt Q9QUQ5 1-758, looked up)
chain: MAQFYYKRNVNAPYRDRIPLRIVRAESELSPSEKAYLNAVEKGDYASVKKSLEEAEIYFKININCIDPLGRTALLIAIENENLELIELLLSFNVYVGDALLHAIRKEVVGAVELLLNHKKPSGEKQVPPILLDKQFSEFTPDITPIILAAHTNNYEIIKLLVQKGVSVPRPHEVRCNCVECVSSSDVDSLRHSRSRLNIYKALASPSLIALSSEDPFLTAFQLSWELQELSKVENEFKSEYEELSRQCKQFAKDLLDQTRSSRELEIILNYRDDNSLIEEQSGNDLARLKLAIKYRQKEFVAQPNCQQLLASRWYDEFPGWRRRHWAVKMVTCFIIGLLFPVFSVCYLIAPKSPLGLFIRKPFIKFICHTASYLTFLFLLLLASQHIDRSDLNRQGPPPTIVEWMILPWVLGFIWGEIKQMWDGGLQDYIHDWWNLMDFVMNSLYLATISLKIVAFVKYSALNPRESWDMWHPTLVAEALFAIANIFSSLRLISLFTANSHLGPLQISLGRMLLDILKFLFIYCLVLLAFANGLNQLYFYYEETKGLSCKGIRCEKQNNAFSTLFETLQSLFWSIFGLINLYVTNVKAQHEFTEFVGATMFGTYNVISLVVLLNMLIAMMNNSYQLIADHADIEWKFARTKLWMSYFEEGGTLPTPFNVIPSPKSLWYLVKWIWTHLCKKKMRRKPESFGTIGRRAADNLRRHHQYQEVMRNLVKRYVAAMIREAKTEEGLTEENVKELKQDISSFRFEVLGLLRGSK
notes: mouse TRPC4, a.a; 1-758 of 974 (a.a. 759-974 left out); MBP tag removed with PreScission protease; also called mTRPC4; truncated TRPC4; source: HEK293S GnTI- cells, BacMam baculovirus, purified (amylose resin, Superose 6); not shown: MBP, N-terminal, cleaved
The stoichiometry N is the number of molecules, sites or subunits per partner or assembly. As for B1, the “stoichiometry N” value turned out to be 4.
